In the DeepSol protein solubility set:

Assay: soluble on expression in E. coli; label from the status in PepcDB or PDB records

Row | Sequence | soluble on expression in E. coli
1 | MERVTVRMARSDRRTPWGFGVTEAPDGAVLIVNVIGGSLADRAGLRNGDVVDRLEDLDNLDINAVDRLLVTAHEKIELIVTRQPSGAATRIWRPEVTENTGPGQDQTPYRVNLQHSSDTRPPQGFNNSALPFETDQRVKHMQYNSPLGIYSDKSAAEQYVQQTQGLGDNSGARAAAQRQDEPAYLRSETLRLLKEQEHGSAGGAGTTLSNHPNPSGLPVCFMCTRPILGVMARAAGKNLHGDCLSCATCGNSLRNVGHHFIEDKFYCDIHGTQRKHGGRPGMDPNIFVKSSPTAAQPVHIQDSPRAAYHPQVNTARPVSVSPAPSAGSKTVTTHYHTPKTQGILSPGQRGVPTAAFGADLSKSVTYGGGVGPGGTHYDSNRLSPAPSQYSTQSRNQSQQHYQQHVVQAPPPVPSNPPPSNEQQSQSRVQNLPDSVRSAVSPRRSGKSPRQWPPPAMPTTNRYWQIDPADALKKEKVNYGEDLVALIKEVEQSKEKEPKVKKEPKKGTRGARRASNISKEQVQQAFEEQRKRTERKEIKKLEKEIKPKPELKVEVPVEPLVVPTSKPLEEPCPEALPPPKINDGIHWTVIHSPVLRSPSPAKVTSEAAIPESNGVVKPIPSYASQPIGISKTSTPQPFRPGSQVERPHYSSVGLKDVHAPVPLPRSPQHSPQPVQSYIVRSSDANVTTSTNLQTTVTRQYTENDNKSQFLQQPHPDTIDSSTSPIPTIRLNRHTKPEPSTPLSVPTVSINDIATSPIKITEPSRPWRASVSNSATSPIKIHESRVQPVDESRGLHRHEEKAQIETSTIKIHEPSSPPPSVHKFGAVNTRAAPAPVQFMQTPRIAVKIHEPTGPSPTPPSTPSHPIKRDPKHFKKVDFSKTSPTVIPEWKDSADIVDESDILTECSREDDSISFLKAATYDGDESEMIDNNIDNKSDITSTFDIEEEEVDVVQDRERIRVVGRKGGEGGEAEKQWRQRAMELLDDDAQTERDLRIVAALNERLQGLREMEDDDRVRAIECIARHQSELEQTQTQLSTLLESAIVYLQNLRPELELTEPIDNDAKSLETVKFEPTRAEQRVNEIRKKVLEDLEHLPILGDGMDSVPPPPPERKVFPFQSYQPIAPQFPVPAAESPVTQSLHDVLDEFYSLRKPTPTQNVAQSSDTTAEDSRNFLASRLGQVMIDENKKAGGSNGSSQHHNQQGSSYTKTSFERTTTETRPQQNTGAPRAGDFRGTGHLTTTTTTQQNGGRAPFCESCKQQIRGAFVLATGKSWCPEHFVCANSSCRRRLLECGFVEEDGQKFCESCFEQHIAPRCNKCSKPIISDCLNALQKKWHPTCFTCAHCQKPFGNSAFYLEQGLPYCEQDWNALFTTKCVSCRYPIEAGDRWVEALGNAFHSNCFTCARCNHNLEGESFFAKNGQPFCRLHA | not soluble
2 | KSEHETRLEAKLFEDYSSVVRPVEDHREIVQVTVGLQLIQLINVDEVNQIVTTNVRLKQQWVDYNLKWNPDDYGGVKKIHIPSEKIWRPDVVLYNNADGDFAIVKFTKVLLDYTGHITWTPPAIFKSYCEIIVTHFPFDEQNCSMKLGTRTYDGSAVAINPESDQPDLSNFMESGEWVIKEARGWKHWVFYSCCPTTPYLDITYHFVMQRLP | soluble
3 | MGWQTLKQQSVPARKRLLYLHIPFCATHCTFCGFYQNKLRDDSTATYTRYLLQELAMEADSPLHQSAPIHAVYFGGGTPTALAADELSQIIRAIRTSLPLAPDCEITVEGRAMDFDDERIDACLDAGANRFSIGIQTFDTRIRQRMARTSDKQQSIRFLERLCGRDRAAVVCDLMFGLPGQTPEIWREDLAIVSDLPLDGVDLYALNLLPTTPLAKAAENQRVALPDVVARRDFYRTGAAFLADSGWHQLSNSHWARTTRERNLYNLLIKQGADCLAMGSGAGGNINGQAYMMERSLERYYQQIDQGQKPIMMMTPASSTGPWQHQLQAGIEVGRIKLPQLTQHARELQPLLSQWHQAGLTCDDSTCLRLTNDGRFWANNLMQALQQIIPQLNAEEHAHLEHHHHHH | not soluble
4 | MSLAGFVVTDVTVATCSILNPFSSCKSSAPWWTQVEKDLYLRTGWTSAAYIRFQRKKEEELLPADKVVIDLKISRLAPEVQDDPKEDKADWEQRPGGIWLKRTAKRHASDSHSAITSVDVLFGADAVDPRPGWEVKDTPILLDSRTESLEARITVRRGDPLKIKKPVPRINENGRFKIMQLADLHLSTGLGHCRDPVPPELIPGQGCEADPRTLDFIERLLDEEQPDLVILSGDQVNGETSRDAQSPLFKSVKLLVDRKIPYAAIFGNHDDEGNLDRHQSMAILEDLPYSLSSAGPEDIDGVGNYIVEVLGRGNTDHSALTLYLLDSHSYSPDERQFRGYDWIKPNQIRWFKTTAQGLKAKHQQYAYMHMNMAFIHIPLPEFAQRGNYFRGNWSEPSTAPGFNSGFKDALEEEGILFVGCGHDHANDYCALSKNEAQKPSLWMCYGGGAGFGGYGGYGGFIRRVRFFDFDMNPGRVVTYKRLEYGNTDARIDEMMIVDGGMVKGPDEGHHHHHH | soluble
5 | MGSDKIHHHHHHMDVLTPTPLTYPYEASRPKMALIAEGGGQRGIFTAGVLDAWLDNDFDPFDLFIGTSAGSQNLTSFLSRQKGYAKRLIRGLSRHKRFYQLGRGLVGGNVVDLDWYFDKTTQGSFALDFTAAAKSLGQRELLITATNSRDRQGYFLRPNGDNDHWRELLKASSALPFLYKQGVKLAPWLTASAANQVHTNYDYPQADFYLDGGLAAPLPVREAYRRGARKIVVIRTVNADFHAQSAWVHKLKSWICVSGYCPKTIDYLAQHEQAYEQELAFIANPPDDVEIIQIFADDNLQSKLLGSTDMDLRHDYQTGITAGNAFLHTQKAFYSTHSLHAQPLLESLTIMQSMTA | not soluble
6 | MNKAKPKVVWASVYEGSAYIAPKDSYVDNMIKMAGGINACASIDSNEGRVSIEQLHEVAKDADIFVYSSSSDYAPNLDSIKSSAPVLADLDVVKNGNLWVFAPDYYQSVDKTDELIVDLVEMFHPGTTGEKIKHYINYDKLEHHHHHH | soluble
7 | MAHHHHHHMYDVKSIHIFRKVKDKDKGKSVILRGLNDNFFNAILVCMYEIVIYLNFANCEDGSTNKPSNKKKKKKGDDRNETTYYVKSARNENNAYRSNVKEVISHNKNKKKINGASGNAAVTREEKGKAERSGDFPGGGENMNDDKENPNQITLWSSNNHEEFGYEYIKDIIKKEEKELYETDKMYHNSNDEYSSHTSDSVEQ | not soluble
8 | MDPTLYCVVAVDTKLGIGKNRCLPWPALRGDMRRFRQLTTDCAPGKQNMVVMGRRTWLSIPAGCRPLAGRINVVLSRTLETPPPGAHFLASSLDAALGLARSPELAQQIDKVWVIGGGDLYREALTGPWPVRLFLTRVLHDFACDVFLSHDSLAAYARVNPKPGEQERVFQERGIFYMFETYIKVTQSSDTALPDLERPRPATPPFSETS | soluble
9 | QSFWEEIAPPFISNEPNVKYIIPNMGIDSKGTIYVTVTKRIQQGANYTSEQLGMYYRPLGDNEQWWKHDPYFDDKIVADIQTDAYGRVYVCTTSSRDQEYQLYINEQNEWRCIFKTSVSTYEHGMAVFRSSTGVTYIGTRHHIFASGVNDFEFNTIYEDSTPMSCRFAEATNSGTIYLALMHETTMSTTILTYQNGEFVDISESELSNSIIASMCSNKEGD | not soluble
10 | MGSDKIHHHHHHVRVTSSSGSCITIPTGVTNVTIRDSEIGPCGQPGDTSAKGIDIQSGASNITVQRNYIHDMATALYAAGARHPIIFDRNRVTNIRGPFPRGQMVQFNGVKSGTSGSKVTCNVSDVQGATYSNVEDHINMYDSGGLSNDRTEIAYNRLRGGSPTSNSGTAIMVGDGASGGNAWVHHNTIVNVRNVGIGVAGGTNIDVESNRIYMDRAATYTNVGLYVWSQGGGSCSGHSVTGNRAWVNSSNGAQNPWWNGGNCGAVELVSNVWGDTSLSSSMFNEVPSQCQ | not soluble
11 | GASCSGGDKSKAPVVSTADIENAAEVIKYYNTSLGVLKDMVKEKDVNAVLDYMEQKGKTPALSAIVPPAVVSKDSAIVLNPGNCFNEETRRNLKQNYTGLFQARTEFYANFDTYLSYLKKKDVTNAKKLLDVNYQLSTQMSEYKQNIFDILSPFTEQAELVLLVDNPLKAQIMSVRKMSSTMQSILNLYARKHRMDGPRIDLKVAELTKQLDAAKKLPVVNGHEGEMKSYQAFLSQVETFIKQVKKVREKGEYSDADYDMLTSAFETSII | soluble
12 | GPGSMGCLPPDDLGPFVSDHVDVNEAEPVPLSDEDLDLLVRYSLLPTDVVREAWAVFNHYRVVECLRAQQRHYAMTGHLPQKSTVSMSARPFPVAECGGKLFTTPVRAASGDCNAVKEEEKAPVSPRDCVTGENSECRKEEVEVAVLGAEGLRQFFEDTGAPIPTLEVTSFLRRMSQPPVEYLLYQRALEEKLTGAAAAAAPPREESPGVGQRKKSPQTDQSKHNKGQSVGRGQRPNNNTKSLNILVDDHIDLLEEQRGSGGETVTFPLFLYILSNAELGKNFTADVRESEINTLFRTLDVDGDGVVSVDDIQRLLEERCSLGDTLYEDRDIRYLRGMNLTELKAALRECDVDEDGAVRLNDFRSVLSS | soluble
13 | MADGQVAELLLRRLEASDGGLDSAELAAELGMEHQAVVGAVKSLQALGEVIEAELRSTKHWELTAEGEEIAREGSHEARVFRSIPPEGLAQSELMRLPSGKVGFSKAMSNKWIRVDKSAADGPRVFRVVDSMEDEVQRRLQLVRGGQAEKLGEKERSELRKRKLLAEVTLKTYWVSKGSAFSTSISKQETELSPEMISSGSWRDRPFKPYNFLAHGVLPDSGHLHPLLKVRSQFRQIFLEMGFTEMPTDNFIESSFWNFDALFQPQQHPARDQHDTFFLRDPAEALQLPMDYVQRVKRTHSQGGYGSQGYKYNWKLDEARKNLLRTHTTSASARALYRLAQKKPFTPVKYFSIDRVFRNETLDATHLAEFHQIEGVVADHGLTLGHLMGVLREFFTKLGITQLRFKPAYNPYTEPSMEVFSYHQGLKKWVEVGNSGVFRPEMLLPMGLPENVSVIAWGLSLERPTMIKYGINNIRELVGHKVNLQMVYDSPLCRLDAEPRPPPTQEAA | soluble
14 | MGSDKIHHHHHHMKGFMNMFTNDQFKSLLIKTLERKSSSNYYEGGNEIVSKMKISEVTLDETDDFTYYKGYKKGWNTLCTYLKIRVPFDDLDFFESHKDLITQTASSIYDKQGDNVLVDTILVPLPENYEVINFSQLKISDVVSQAIEDAESFMSNGEYQRAFDRVHTAFHGYLIEILKKYEITVPRDENLSKLYSRIQQLIEKEIQPTELADIVKTTIRSSNGMISSLNEARNRHSLAHPNTNIIGKREAKLIIGISSTVTDYISGYLDK | not soluble
15 | VVCREASHAGSWYTASGPQLNAQLEGWLSQVQSTKRPARAIIAPHAGYTYCGSCAAHAYKQVDPSITRRIFILGPSHHVPLSRCALSSVDIYRTPLYDLRIDQKIYGELWKTGMFERMSLQTDEDEHSIEMHLPYTAKAMESHKDEFTIIPVLVGALSESKEQEFGKLFSKYLADPSNLFVVSSDFCHWGQRFRYSYYDESQGEIYRSIEHLDKMGMSIIEQLDPVSFSNYLKKYHNTICGRHPIGVLLNAITELQKNGMNMSFSFLNYAQSSQCRNWQDSSVSYAAGALTVH | soluble
16 | MKEVEKNEIKRLSDRLDAIRHQQAGLSLVESADKYAELEKEKETLEAEIIRLREVHSQKLSKEAQKLMNLPFRRAITKKEQADMGKLKKSVRGLIVVHPMTALGREMGLKEMTGFAKSEF | not soluble
17 | MHANGIFFVPKYSSKYGKKQQTEKQWPVPEMGWQPGAVNSNFALQSSALILIGGFIRIIKVDSNATSCIHFGGIDAKPLLLQMNAYSLPAAEIRTKNGRIVARVF | not soluble
18 | SLGQRPPIRRIVIDAAIPTKGITIVDVAKELYKVEGVKAVRITVDDVDVDVLGLAIVVEGVDIDYNELEDVLEKVGGVVHSVDEVVVGEYIPEAGRTA | soluble
19 | MPRKKSAGPRSFGEPLTDDPDDAPELLDEFFRTGEIRVDGKIVRRGRPPLGTQPKSSVTLRLDADVLDAYRALGRGWQSQINADLRRVRKLKKA | not soluble
